The supplement of paper PMC12042874
± gives the uncertainty stated by the source.

Assay: amyloid nucleation score (Sup35N fusion, yeast selection) (log enrichment); library NNK3; higher = more nucleation; inactive = no reads after selection
Method in brief: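 The nucleation score is the DiMSum log enrichment of output over input reads, centred on the mode score of non-aggregating sequences. Only sequences with 100 or more input reads were scored, using Illumina sequencing of input and output plasmid inserts. Psi-negative yeast expressing Sup35N fused to peptides of 20 random codons were induced 24 hours with 100 μM copper sulfate and grown 7 days at 30°C on medium lacking adenine and uracil.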
In the case of MGSGIFCDLFHGVMYCMQVR, the amyloid nucleation score is reported as “inactive”. Work on MGYPTISFCFNVYAFSVRIV yielded an amyloid nucleation score of 0.697 ± 0.2. For MHATIMVVDRESFHGLGWKS, the amyloid nucleation score was “inactive”. In the case of MIFLLTSIL, the amyloid nucleation score is reported as “inactive”. With MILCLLRKAQFCY the amyloid nucleation score was “inactive”. With MILFC the amyloid nucleation score was “inactive”. With MINWYGRTNPLCDPGLLRGI the amyloid nucleation score was “inactive”. In the case of MIVARMLVSIYKSWTIILRY, the amyloid nucleation score is reported as “inactive”. In the case of MIYAFVGYGVGTSGGVARES, the amyloid nucleation score is reported as “inactive”. MIYSYTNFGNIWKVCQVMRH showed an amyloid nucleation score of 2.39 ± 0.057. In the case of MIYYMLWTYWALPKPWNEYI, the amyloid nucleation score is reported as 0.971 ± 0.16. In the case of MKDMSFTYLLFKSHCAWVSL, the amyloid nucleation score is reported as “inactive”. In the case of MKLWFNTARLDMKVSKTVYS, the amyloid nucleation score is reported as “inactive”. In the case of MKYYVR, the amyloid nucleation score is reported as “inactive”. In the case of MLCDVSKVDLSRLLGAGVYD, the amyloid nucleation score is reported as “inactive”. MLELLTFTDFLGTTDITRNS showed an amyloid nucleation score of -0.113 ± 0.39. With MLFHDSVSSTWRIFELCSRC the amyloid nucleation score was “inactive”. Substance MLGLCPFKSDWLLIYRSMWC has an amyloid nucleation score of 1.32 ± 0.15. For MLHASV, the amyloid nucleation score was “inactive”. In the case of MLLFHLVVQLNDLLSAPLRA, the amyloid nucleation score is reported as “inactive”. With MLLYYEEGLCIFLLSLNPVC the amyloid nucleation score was “inactive”. For MLNLRCSKCGMMPLRNRIVS, the amyloid nucleation score was “inactive”. For MLSDSLHHSSNIVTLVTRGS, the amyloid nucleation score was “inactive”. In the case of MLSFLYRELN, the amyloid nucleation score is reported as “inactive”. For MLSWLYTSGRSRYVILLQP, the amyloid nucleation score was “inactive”. In the case of MLVVWLFMWFIHINKRWDGA, the amyloid nucleation score is reported as “inactive”. For MLWEVDLNVRTSMADT, the amyloid nucleation score was “inactive”. With MMNSWDPVMLYSYGNTEVVH the amyloid nucleation score was “inactive”. With MNEGLYS the amyloid nucleation score was “inactive”. For MNEKENMMNTQWIVCNTCAK, the amyloid nucleation score was “inactive”. In the case of MNFPR, the amyloid nucleation score is reported as “inactive”. In the case of MNGDSAMWFSISS, the amyloid nucleation score is reported as “inactive”. In the case of MNRMCVLLVNFCVDTD, the amyloid nucleation score is reported as 1.9 ± 0.06. In the case of MNTACS, the amyloid nucleation score is reported as “inactive”. For MNWFELFAHCLLKQFQRTLQ, the amyloid nucleation score was “inactive”. Substance MNYVIIFTWN has an amyloid nucleation score of 2.76 ± 0.071. For MPDLITGGKPAIRWYYGSDS, the amyloid nucleation score was “inactive”. For MPIGTSSYFFSQKICHYTSR, the amyloid nucleation score was 1.77 ± 0.09. In the case of MPIRCSTSLHWTTTMWMTVW, the amyloid nucleation score is reported as “inactive”. In the case of MPWGTWGAS, the amyloid nucleation score is reported as “inactive”. MPWKSMAHFYALEFDLRCLR showed an amyloid nucleation score of 0.619 ± 0.22. Substance MQLDLMCCLVSCTMNTFSSR has an amyloid nucleation score of 1.54 ± 0.11. For MQSAVNVV, the amyloid nucleation score was “inactive”. For MQVILNNVFSTFPLPAGLLR, the amyloid nucleation score was “inactive”. With MRAFIRYCIFVCMSAYRNMV the amyloid nucleation score was -0.352 ± 0.73. In the case of MRFSKGNYLYMREGHKGFCG, the amyloid nucleation score is reported as “inactive”. With MRGWLRLSELCKGVLIVGFA the amyloid nucleation score was “inactive”. In the case of MRIRIPTSNNEGYPIFMSAL, the amyloid nucleation score is reported as “inactive”. In the case of MRLYLFSRYPLARTTFMSTC, the amyloid nucleation score is reported as “inactive”. For MRMFCDIYLIVIDTEFMLHF, the amyloid nucleation score was “inactive”. With MRSWRMRGSERFAHSLRGYL the amyloid nucleation score was “inactive”. In the case of MRVYFMWATTWLA, the amyloid nucleation score is reported as “inactive”. For MRYLDLYGRARNVRIRVRRT, the amyloid nucleation score was “inactive”. In the case of MSCRARRTNLF, the amyloid nucleation score is reported as “inactive”. With MSCYN the amyloid nucleation score was “inactive”. In the case of MSFWY, the amyloid nucleation score is reported as “inactive”. With MSGNA the amyloid nucleation score was “inactive”. For MSHDTFDV, the amyloid nucleation score was “inactive”. For MSLGFALVSILVCF, the amyloid nucleation score was “inactive”. In the case of MSMRLRIYKFFEICANSMMP, the amyloid nucleation score is reported as “inactive”. With MSRTKPLGF the amyloid nucleation score was “inactive”. With MSSPAPFWSVNSVLAIKNLF the amyloid nucleation score was “inactive”. With MSSQCWRQIGWDTCARS the amyloid nucleation score was “inactive”. MSSQVMALIRFQFHSHDSHG gave an amyloid nucleation score of 1.36 ± 0.16. In the case of MSSYKCSECLRGHRGTPLPV, the amyloid nucleation score is reported as “inactive”. With MSVQHER the amyloid nucleation score was “inactive”. In the case of MTCTVRSEVYIHFNFVAIKF, the amyloid nucleation score is reported as 0.299 ± 0.33. With MTCWTTYNGTDIEGKGGINN the amyloid nucleation score was “inactive”. In the case of MTFIRPKLGKKPGMYGTNIV, the amyloid nucleation score is reported as “inactive”. With MTGLLMSKTARFCRRNR the amyloid nucleation score was “inactive”. In the case of MTNLCRRVGKKFPNRSHSGY, the amyloid nucleation score is reported as “inactive”. For MTPGFCLPK, the amyloid nucleation score was “inactive”. In the case of MTRCLSFWTRSQVLYFCWKL, the amyloid nucleation score is reported as “inactive”. With MTVRETLYWVRS the amyloid nucleation score was “inactive”. With MTVWNSWNINIVWVMFLSA the amyloid nucleation score was “inactive”. With MTYCRVFRNRASDKPYMMRL the amyloid nucleation score was “inactive”. For MTYVGGSVQYGRSLRHRIDR, the amyloid nucleation score was “inactive”. For MVCISL, the amyloid nucleation score was “inactive”. With MVDSRLNSSLNYSLCLSDVK the amyloid nucleation score was “inactive”. For MVFCNGFGYGASNFGNNSAS, the amyloid nucleation score was “inactive”. With MVFMADK the amyloid nucleation score was 0.268 ± 0.2. In the case of MVLDDYIRKGG, the amyloid nucleation score is reported as 0.073 ± 0.33. For MVLYYSLILFAHCLKLARHN, the amyloid nucleation score was “inactive”. With MVRMDHCQVEDSMVTNVD the amyloid nucleation score was “inactive”. In the case of MVRSRLSASRRSICGPIISA, the amyloid nucleation score is reported as “inactive”. With MVVGCCSEGV the amyloid nucleation score was “inactive”. With MWDIGGARAKDCEGLSVNCI the amyloid nucleation score was “inactive”. For MWFHLSYMAIFNGVSMQDVC, the amyloid nucleation score was “inactive”. MWFPSVLWTIISQSYEMQKL gave an amyloid nucleation score of 0.783 ± 0.12. For MWHLTF, the amyloid nucleation score was “inactive”. With MWICVILGSQIWSRWETMNG the amyloid nucleation score was “inactive”. With MWPNITLFFSWRTEVLLYLI the amyloid nucleation score was “inactive”. In the case of MWPYIMILGIVDTMWLLLSP, the amyloid nucleation score is reported as “inactive”. With MYDGKNWQLAQ the amyloid nucleation score was “inactive”. With MYERRSLDKKVHRCYILALT the amyloid nucleation score was “inactive”. With MYFVKMLMGVILLVNFSRW the amyloid nucleation score was “inactive”. In the case of MYGHIYHFRINTLWGVNL, the amyloid nucleation score is reported as “inactive”. With MYGLLIKNSYRKRLDLSVSI the amyloid nucleation score was “inactive”. In the case of MYGPMVWVDLYTCKTHRGAS, the amyloid nucleation score is reported as “inactive”. For MYLPWISSSGVLNRTSMSFY, the amyloid nucleation score was 0.668 ± 0.12. With MYLVR the amyloid nucleation score was “inactive”. In the case of MYPHAQIEYYAVAHSLAIV, the amyloid nucleation score is reported as “inactive”. With MYSPVFRI the amyloid nucleation score was “inactive”. In the case of MYTLCQMLNVRTRDMTCVTR, the amyloid nucleation score is reported as “inactive”. With NAENFYV the amyloid nucleation score was “inactive”. In the case of NAEVALDHSSDLDS, the amyloid nucleation score is reported as “inactive”. In the case of NAFDFSL, the amyloid nucleation score is reported as “inactive”. In the case of NAFGYSDVTVLVNSSLFESY, the amyloid nucleation score is reported as “inactive”. With NAHPWGYWSIVMRNIKVVVL the amyloid nucleation score was “inactive”. With NALMKSVTFWCSAGISISRL the amyloid nucleation score was 1.26 ± 0.11. For NAVSDTGRKRECFRADRFLS, the amyloid nucleation score was “inactive”. For NCDILVLCLSCIADGRQSYE, the amyloid nucleation score was 2.96 ± 0.078. With NCFVSICLFFASTFWLGLHN the amyloid nucleation score was “inactive”. For NCICLSGHFGHL, the amyloid nucleation score was 2.24 ± 0.091. In the case of NCIECRTDTYW, the amyloid nucleation score is reported as “inactive”. For NCLFWSEVRFHVMCFCDWLL, the amyloid nucleation score was “inactive”. In the case of NCPQWDVCFTYLSSGRQRAD, the amyloid nucleation score is reported as “inactive”. For NCSSVPVSALFGEGVRKTPS, the amyloid nucleation score was “inactive”. NCVRSLCMLWTTFTCVNDLC gave an amyloid nucleation score of 2.1 ± 0.079. In the case of NDKVGRAL, the amyloid nucleation score is reported as “inactive”. With NEDST the amyloid nucleation score was “inactive”. For NEFGEVLDSN, the amyloid nucleation score was “inactive”. For NEIMVTLHNV, the amyloid nucleation score was “inactive”. In the case of NEIQAYIRWSI, the amyloid nucleation score is reported as “inactive”. Work on NENPDNYLRIAVWTTFFSFC yielded an amyloid nucleation score of 1.57 ± 0.095. Work on NERFERMKRKSVQLPLYVVM yielded an amyloid nucleation score of -0.009 ± 0.53. With NESFDCPFAGLYRKQYIWQT the amyloid nucleation score was “inactive”. With NESISPFVTKRHPEFMRFNC the amyloid nucleation score was “inactive”. For NFENMSCSNTVNVLFIEPGA, the amyloid nucleation score was 1.14 ± 0.096. For NFFNLLGMKLVR, the amyloid nucleation score was “inactive”. In the case of NFFRDSGRMCHPKGIGDRWT, the amyloid nucleation score is reported as “inactive”. For NFGQTGRCYKRLRFC, the amyloid nucleation score was “inactive”. In the case of NFINYLR, the amyloid nucleation score is reported as “inactive”. In the case of NFKAT, the amyloid nucleation score is reported as “inactive”. In the case of NFLFISYYVPGQCTV, the amyloid nucleation score is reported as “inactive”. NFLLDSLSSETGFRCY showed an amyloid nucleation score of -0.607 ± 1. Substance NFLRAKDLEYRTV has an amyloid nucleation score of -0.761 ± 1.1. For NFSPHTFVSNSM, the amyloid nucleation score was “inactive”. With NFTMNLIIGCF the amyloid nucleation score was 1.3 ± 0.12. Substance NFTSRSAVLVR has an amyloid nucleation score of 2.21 ± 0.07. With NGDHRRCSLIT the amyloid nucleation score was “inactive”. With NGDMKARTFHTRDFKFGVPR the amyloid nucleation score was “inactive”. For NGELLCKGH, the amyloid nucleation score was “inactive”. NGRWRRFLWKNGCMELYRTG showed an amyloid nucleation score of 1.52 ± 0.085. In the case of NGSYIFPSNCYSKIAIVMVG, the amyloid nucleation score is reported as 0.706 ± 0.26. For NGVCTVNVTFCYMV, the amyloid nucleation score was 2.23 ± 0.058. In the case of NHRYMMVTATRIKWDGVSWN, the amyloid nucleation score is reported as “inactive”. In the case of NHSSYG, the amyloid nucleation score is reported as “inactive”. For NHWGSNWWLVYKVYSGGLLM, the amyloid nucleation score was “inactive”. With NHYWQ the amyloid nucleation score was “inactive”. Work on NIICTWCGGFMRLNLNV yielded an amyloid nucleation score of 1.9 ± 0.073. With NIIVWPVCGILLYTHSIS the amyloid nucleation score was “inactive”. With NIKGFRVDKYVETL the amyloid nucleation score was “inactive”. In the case of NINRFLDLSSWIGYQNGYKA, the amyloid nucleation score is reported as “inactive”. With NISLLWDGAFCIYVCLLWRG the amyloid nucleation score was -0.438 ± 0.9. With NISSTSFRMGNIIGNEFLVY the amyloid nucleation score was “inactive”. In the case of NIVAVRCWFLDFPQDD, the amyloid nucleation score is reported as “inactive”. Work on NIYFLVRDSSRIRHKSVGWQ yielded an amyloid nucleation score of 2.17 ± 0.06. In the case of NKKDHAYKWISVD, the amyloid nucleation score is reported as “inactive”. For NKQNEVSRSCLSRCRYFGGD, the amyloid nucleation score was “inactive”. In the case of NKRLAQRQWDTACFQKG, the amyloid nucleation score is reported as “inactive”.
